B1: ZNF232 (parent)
chain: GKAYGWCSELIRHRRVHARKEPSH
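Further: lentivirally expressed fusions sorted by FACS into six bins by GFP to DsRed ratio, PSI derived from sequencing read proportions per bin multiplied by bin number.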

Variants of: B1
Test: protein stability index of a GFP-peptide fusion (GPS, HEK-293T) (PSI 1-6); higher = more stable
Conditions: c terminus: a fixed tail appended
GKAYGWCSELIRHRLVHARKEPSH showed a protein stability index of 2.02.
With GKAYGWCSELIRHRMVHARKEPSH the protein stability index was 3.16.
Variant GKAYGWCSELIRHRNVHARKEPSH has a protein stability index of 2.93.
With GKAYGWCSELIRHRPVHARKEPSH the protein stability index was 3.25.
For GKAYGWCSELIRHRQVHARKEPSH, the protein stability index was 3.07.
With GKAYGWCSELIRHRSVHARKEPSH the protein stability index was 3.36.
GKAYGWCSELIRHRTVHARKEPSH showed a protein stability index of 3.19.
Work on GKAYGWCSELIRHRVVHARKEPSH yielded a protein stability index of 2.44.
In the case of GKAYGWCSELIRHRWVHARKEPSH, the protein stability index is reported as 2.25.
In the case of GKAYGWCSELIRHRYVHARKEPSH, the protein stability index is reported as 2.38.
GKAYGWCSELIRHRRAHARKEPSH gave a protein stability index of 2.71.
GKAYGWCSELIRHRRCHARKEPSH gave a protein stability index of 2.52.
GKAYGWCSELIRHRRDHARKEPSH gave a protein stability index of 3.49.
GKAYGWCSELIRHRREHARKEPSH showed a protein stability index of 3.16.
In the case of GKAYGWCSELIRHRRFHARKEPSH, the protein stability index is reported as 2.87.
GKAYGWCSELIRHRRGHARKEPSH gave a protein stability index of 3.53.
GKAYGWCSELIRHRRHHARKEPSH showed a protein stability index of 3.41.
GKAYGWCSELIRHRRIHARKEPSH showed a protein stability index of 2.42.
With GKAYGWCSELIRHRRKHARKEPSH the protein stability index was 3.22.
Variant GKAYGWCSELIRHRRLHARKEPSH has a protein stability index of 2.9.
Variant GKAYGWCSELIRHRRMHARKEPSH has a protein stability index of 3.43.
Work on GKAYGWCSELIRHRRNHARKEPSH yielded a protein stability index of 3.26.
For GKAYGWCSELIRHRRPHARKEPSH, the protein stability index was 3.35.
For GKAYGWCSELIRHRRQHARKEPSH, the protein stability index was 3.53.
Variant GKAYGWCSELIRHRRRHARKEPSH has a protein stability index of 3.67.
GKAYGWCSELIRHRRSHARKEPSH showed a protein stability index of 3.48.
With GKAYGWCSELIRHRRTHARKEPSH the protein stability index was 3.07.
Work on GKAYGWCSELIRHRRWHARKEPSH yielded a protein stability index of 2.55.
In the case of GKAYGWCSELIRHRRYHARKEPSH, the protein stability index is reported as 2.74.
In the case of GKAYGWCSELIRHRRVAARKEPSH, the protein stability index is reported as 2.77.
In the case of GKAYGWCSELIRHRRVCARKEPSH, the protein stability index is reported as 3.46.
In the case of GKAYGWCSELIRHRRVDARKEPSH, the protein stability index is reported as 3.36.
GKAYGWCSELIRHRRVEARKEPSH showed a protein stability index of 3.28.
For GKAYGWCSELIRHRRVFARKEPSH, the protein stability index was 2.49.
Variant GKAYGWCSELIRHRRVGARKEPSH has a protein stability index of 3.57.
Variant GKAYGWCSELIRHRRVIARKEPSH has a protein stability index of 2.51.
GKAYGWCSELIRHRRVKARKEPSH gave a protein stability index of 3.32.
Variant GKAYGWCSELIRHRRVLARKEPSH has a protein stability index of 2.99.
For GKAYGWCSELIRHRRVMARKEPSH, the protein stability index was 2.75.
With GKAYGWCSELIRHRRVNARKEPSH the protein stability index was 2.72.
For GKAYGWCSELIRHRRVPARKEPSH, the protein stability index was 3.02.
In the case of GKAYGWCSELIRHRRVQARKEPSH, the protein stability index is reported as 3.04.
GKAYGWCSELIRHRRVRARKEPSH gave a protein stability index of 3.03.
GKAYGWCSELIRHRRVSARKEPSH showed a protein stability index of 2.76.
In the case of GKAYGWCSELIRHRRVTARKEPSH, the protein stability index is reported as 3.28.
Work on GKAYGWCSELIRHRRVVARKEPSH yielded a protein stability index of 2.84.
GKAYGWCSELIRHRRVWARKEPSH showed a protein stability index of 1.87.
GKAYGWCSELIRHRRVYARKEPSH showed a protein stability index of 2.16.
In the case of GKAYGWCSELIRHRRVHCRKEPSH, the protein stability index is reported as 2.88.
For GKAYGWCSELIRHRRVHDRKEPSH, the protein stability index was 3.84.
GKAYGWCSELIRHRRVHERKEPSH showed a protein stability index of 3.74.
GKAYGWCSELIRHRRVHFRKEPSH gave a protein stability index of 2.49.
Work on GKAYGWCSELIRHRRVHGRKEPSH yielded a protein stability index of 3.
Variant GKAYGWCSELIRHRRVHHRKEPSH has a protein stability index of 2.86.
GKAYGWCSELIRHRRVHIRKEPSH showed a protein stability index of 3.04.
GKAYGWCSELIRHRRVHKRKEPSH showed a protein stability index of 3.19.
Variant GKAYGWCSELIRHRRVHLRKEPSH has a protein stability index of 2.13.
GKAYGWCSELIRHRRVHMRKEPSH showed a protein stability index of 3.25.
For GKAYGWCSELIRHRRVHNRKEPSH, the protein stability index was 2.84.
With GKAYGWCSELIRHRRVHPRKEPSH the protein stability index was 3.33.
Work on GKAYGWCSELIRHRRVHQRKEPSH yielded a protein stability index of 2.81.
For GKAYGWCSELIRHRRVHRRKEPSH, the protein stability index was 3.28.
With GKAYGWCSELIRHRRVHSRKEPSH the protein stability index was 3.37.
Work on GKAYGWCSELIRHRRVHTRKEPSH yielded a protein stability index of 3.28.
Work on GKAYGWCSELIRHRRVHVRKEPSH yielded a protein stability index of 2.59.
With GKAYGWCSELIRHRRVHWRKEPSH the protein stability index was 1.83.
With GKAYGWCSELIRHRRVHYRKEPSH the protein stability index was 2.76.
Work on GKAYGWCSELIRHRRVHAAKEPSH yielded a protein stability index of 2.54.
GKAYGWCSELIRHRRVHACKEPSH showed a protein stability index of 2.68.
Work on GKAYGWCSELIRHRRVHADKEPSH yielded a protein stability index of 3.31.
In the case of GKAYGWCSELIRHRRVHAEKEPSH, the protein stability index is reported as 3.53.
GKAYGWCSELIRHRRVHAFKEPSH showed a protein stability index of 2.15.
GKAYGWCSELIRHRRVHAGKEPSH gave a protein stability index of 3.01.
Variant GKAYGWCSELIRHRRVHAHKEPSH has a protein stability index of 2.66.
For GKAYGWCSELIRHRRVHAIKEPSH, the protein stability index was 3.09.
Work on GKAYGWCSELIRHRRVHAKKEPSH yielded a protein stability index of 2.82.
GKAYGWCSELIRHRRVHALKEPSH gave a protein stability index of 1.94.
Variant GKAYGWCSELIRHRRVHAMKEPSH has a protein stability index of 3.18.
In the case of GKAYGWCSELIRHRRVHANKEPSH, the protein stability index is reported as 3.81.
In the case of GKAYGWCSELIRHRRVHAPKEPSH, the protein stability index is reported as 2.37.
For GKAYGWCSELIRHRRVHAQKEPSH, the protein stability index was 3.44.
With GKAYGWCSELIRHRRVHASKEPSH the protein stability index was 2.8.
Variant GKAYGWCSELIRHRRVHATKEPSH has a protein stability index of 2.89.
GKAYGWCSELIRHRRVHAVKEPSH showed a protein stability index of 2.52.
In the case of GKAYGWCSELIRHRRVHAWKEPSH, the protein stability index is reported as 2.15.
GKAYGWCSELIRHRRVHAYKEPSH gave a protein stability index of 1.81.
GKAYGWCSELIRHRRVHARAEPSH gave a protein stability index of 3.19.
GKAYGWCSELIRHRRVHARCEPSH showed a protein stability index of 2.6.
In the case of GKAYGWCSELIRHRRVHARDEPSH, the protein stability index is reported as 3.45.
GKAYGWCSELIRHRRVHAREEPSH showed a protein stability index of 3.07.
For GKAYGWCSELIRHRRVHARFEPSH, the protein stability index was 1.9.
In the case of GKAYGWCSELIRHRRVHARGEPSH, the protein stability index is reported as 2.86.
GKAYGWCSELIRHRRVHARHEPSH showed a protein stability index of 2.97.
With GKAYGWCSELIRHRRVHARIEPSH the protein stability index was 2.05.
